B1: His10-BTLA^ICD BTLA^FFYF, pre-phosphorylated (domain or fragment)
chain: DTAGREINLVDAHLKSEQTEASTRQNSQVLLSETGIFDNDPDLCFRMQEGSEVFSNPCLEENKPGIVYASLNHSVIGPNSRLARNVKEAPTEFASICVRS
modifications: pre-phosphorylated with Fyn; lone tyrosine (Y257) in the ITIM

Columns and labels:
[1] = target: B1; test: SPR
SNAP-SHP2-cSH2 = test: SPR

Kd [1] | Kd (SNAP-SHP2-cSH2) | Binder
1800 nM | – | SNAP-SHP1-cSH2 (domain or fragment) WYHGHMSGGQAETLLQAKGEPWTFLVRESLSQPGDFVLSVLSDQPKAGPGSPLRVTHIKVMCEGGRYTVGGLETFDSLTDLVEHFKKTGIEEASGAFVYLRQPY
– | 1100 nM | His10-BTLA^ICD BTLA^FFFY, pre-phosphorylated (domain or fragment, pre-phosphorylated with Fyn; lone tyrosine (Y282) in the ITSM) DTAGREINLVDAHLKSEQTEASTRQNSQVLLSETGIFDNDPDLCFRMQEGSEVFSNPCLEENKPGIVFASLNHSVIGPNSRLARNVKEAPTEYASICVRS
– | 1100 nM | B1
